Where a chain is given by its changes, count along the chain named.

The results in this text go back to patent US20210261685A1 (Alector, published 2021).

The labels stand for the following.
T1: Recombinant human MerTK human Fc Chimera protein (R&D systems, Cat #391-MR-100) (human, UniProt Q12866 26-499, limits assumed)
T1 construct: Bought; also called recombinant human MerTK protein; MerTK-Fc
T1 sequence: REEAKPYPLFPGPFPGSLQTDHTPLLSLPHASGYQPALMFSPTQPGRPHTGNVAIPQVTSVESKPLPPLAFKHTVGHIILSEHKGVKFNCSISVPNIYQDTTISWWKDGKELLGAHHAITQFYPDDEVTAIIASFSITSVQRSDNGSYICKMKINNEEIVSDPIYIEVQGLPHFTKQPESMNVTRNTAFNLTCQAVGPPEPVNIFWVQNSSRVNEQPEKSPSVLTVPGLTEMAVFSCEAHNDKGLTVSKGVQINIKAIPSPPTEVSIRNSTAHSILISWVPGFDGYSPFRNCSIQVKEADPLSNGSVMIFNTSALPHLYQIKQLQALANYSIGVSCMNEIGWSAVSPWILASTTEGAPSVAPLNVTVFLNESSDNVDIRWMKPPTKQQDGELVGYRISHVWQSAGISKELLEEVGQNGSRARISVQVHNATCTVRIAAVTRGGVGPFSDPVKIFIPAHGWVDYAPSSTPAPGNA

T2: human MerTK endogenously expressed on cells (SK-MEL-5 cells; human macrophages) (human, UniProt Q12866 21-999)
T2 sequence: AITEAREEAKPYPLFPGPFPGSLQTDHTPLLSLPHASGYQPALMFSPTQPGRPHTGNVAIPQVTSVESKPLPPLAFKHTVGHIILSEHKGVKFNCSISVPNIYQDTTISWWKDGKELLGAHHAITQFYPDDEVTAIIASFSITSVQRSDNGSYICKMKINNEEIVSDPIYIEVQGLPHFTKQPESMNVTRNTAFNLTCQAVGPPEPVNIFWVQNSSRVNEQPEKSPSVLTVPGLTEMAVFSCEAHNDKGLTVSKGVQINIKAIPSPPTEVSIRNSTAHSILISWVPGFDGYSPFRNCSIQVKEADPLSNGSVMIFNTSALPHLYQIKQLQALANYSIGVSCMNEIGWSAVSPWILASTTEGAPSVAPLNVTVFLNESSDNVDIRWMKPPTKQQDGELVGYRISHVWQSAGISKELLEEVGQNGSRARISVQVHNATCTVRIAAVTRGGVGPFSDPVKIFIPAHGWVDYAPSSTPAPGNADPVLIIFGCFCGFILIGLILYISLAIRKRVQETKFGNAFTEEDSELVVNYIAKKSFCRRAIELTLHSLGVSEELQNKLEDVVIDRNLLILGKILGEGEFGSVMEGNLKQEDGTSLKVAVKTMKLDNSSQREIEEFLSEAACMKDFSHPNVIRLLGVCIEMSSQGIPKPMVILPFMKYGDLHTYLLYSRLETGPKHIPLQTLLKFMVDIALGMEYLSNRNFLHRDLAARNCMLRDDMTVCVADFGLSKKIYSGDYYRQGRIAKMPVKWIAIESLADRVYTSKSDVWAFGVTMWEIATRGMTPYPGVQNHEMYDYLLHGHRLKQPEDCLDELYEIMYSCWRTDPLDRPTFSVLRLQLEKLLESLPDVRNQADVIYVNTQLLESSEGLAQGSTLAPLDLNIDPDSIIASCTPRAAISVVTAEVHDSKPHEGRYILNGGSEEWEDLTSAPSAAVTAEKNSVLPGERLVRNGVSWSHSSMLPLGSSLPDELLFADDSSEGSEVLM

B1: MTK-35 (antibody, human IgG1, V domains shown)
VH: QVLLQQSGPELVKPGASVQLSCKASDYTFTSYDIHWVKQRPGQGLEWIGWIYPRDGYTKYNEIFKGKATLTVDTSSTTAYMELHSLTSEDSAVYFCARAYYTNWYYFDYWGQGTTLTVSS
VL: EIVLTQSPTTMAASPGEKITITCRASSSISSHYLHWYQQKPGFSPKLLIYRTSNLASGVPARFSGSGSGTSYSLTIGTMEAEDVATYYCQQGSTIPLTFGAGTKLVLK
B2: MTK-36 (antibody, human IgG1, V domains shown)
VH: QVTLKESGPGILQPSQTLSLTCSFSGFSLSTFGMGVGWIRQPSGKGLEWLAHIWWYDDKYYEPALKSRLTISKDSSKNQVFLKIANVDTADTATYYCARIYYGTSYRYFDVWGTGTTVTVSS
VL: QIVLSQSPAILSAFPGEKVTMTCRATSSVRYMHWYQQKPGSSPKPWIYATYNLTSGVPARFSGSGSGTSYSLTISRVEAEDAATYYCHQWSSNPYTFGGGTKLEIK
B3: MTK-30 (antibody, human IgG1, V domains shown)
VH: QVQLQQPGTELVRPGASVKLSCKASGYTFTSYWMHWVKQRPGQGLEWIGNLNPNNGGTYYNEKFKSKATLTVDKSSSTAYMQLSSLTSEDSAVYYCARQILLYFDYWGQGTTLTVSS
VL: DVLMTQTPLSLPVSLGDQASISCRSSQSIVHSNGDTYLEWYLQKPGQSPKLLIYKVSNRFSGVPDRFSGSGSGTDFTLKISRVEAEDLGVYYCFQGSHVPWTFGGGTKLEIK
B4: MTK-27 (antibody, human IgG1, V domains shown)
VH: EVQLQQSGTELVRPGASVKLSCTASGFNIKDDYMHWVQQRPEQGLEWIGWIDPENGNTEYASKFQGKATITADASSNTAYLQLSSLTSEDTAVYYCSTLFSNYFDYWGQGTTLTVSS
VL: DIVMTQSQKFMSTSVGDRVSITCKASQNVRTSVAWYQQKPGQSPKALIYLASNRHTGVPDRFTGSGSGTDFTLTISNVRSEDLADYFCLQHWNYPYTFGGGTKLEIK
B5: MTK-26 (antibody, human IgG1, V domains shown)
VH: AVQFQESGPGLVKLSQSLSLTCSVTGYSITSGYYWDWIRQFPGNKLEWMGYISYDGSNNYNPSLKNRISITRDTSKNQFFLKLNSVTTEDTATYYCAREGGYYRSMDYWGQGTSVTVSS
VL: QIVLTQSPAIMSASPGEKVTIACSASSSVSFMHWFQQKPGTSPRLWIYSTSNLASGVPARFSGSGSGTSYSLTISRMEAEDAATYYCQQRSSYPFTFGSGTKLEIK
B6: MTK-01 (antibody, human IgG1, V domains shown)
VH: QIQLVQSGPELKKPGETVKISCKASGYTFTNYGMNWVKQAPGKGLKCMGWINTYTGEPTYADDFKGRFAFSLETSATTAYLQINNLKNEDTATYFCARRDRYTWFAYWGQGTLVTVSA
VL: B2 VL with F14S, T26S, R30S, Y51S, T54A, H88Q, Y95P
B7: MTK-29 (antibody, human IgG1, V domains shown)
VH: QIQLVQSGPELKKPGETVKISCKSSGFTFTTYGMSWVKQAPGKGLKWMGWINTYSGVPTYTDDFKGRFAFSLETSASTASLQINNLKNEDTATYFCARYTNYGYFDYWGQGTTLTVSS
VL: B2 VL with F14S, R30G, Y51S, T54A, D81H, H88Q, S91G, Y95F, G99S
B8: MTK-05 (antibody, human IgG1, V domains shown)
VH: QVQLQQSGAELVQPGTSVRLSCKTSGYTFTSYWIQWVKQRPGQGLGWIGEIFPGTGTTYYNEKFKGKATLTIDTSSSTAYMQLSSLTSEDSAVYFCARDGAYFDVWGAGTTVTVSS
VL: DIQMTQSPASLSASVGETVTFTCRASENIFSYLAWYQQKQGKSPQLLVYNAKTLAEGVPSRFSGSGSGTHFSLKINSLQPEDFGSYYCLHHYGTPLTFGAGTKLELK
B9: MTK-19 (antibody, human IgG1, V domains shown)
VH: EVQLQQSGPELVKPGASVKISCKTSGYTFTEYTMHWVKQSHGKSLEWLGGFNPNNVITSYNQRFQGRATLTVDKSSSTAYMELRSLTSDDSAVYYCTRGDLLWSLLLPGNYFDYWGQGTTLTVSS
VL: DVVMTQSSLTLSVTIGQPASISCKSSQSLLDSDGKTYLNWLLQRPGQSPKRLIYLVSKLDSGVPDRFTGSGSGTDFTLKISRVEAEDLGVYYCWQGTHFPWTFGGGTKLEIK
B10: MTK-33 (antibody, human IgG1, V domains shown)
VH: QVQLQQPGPELVRPGTSVKLSCKASGYTFTSYWMHWIKQRPGQGLEWIGVIDPSDNYINYNQKFKGKATLTVDTSSSTAYLQLSSLTSEDSAVYYCAREAGTRGYFDYWGQGTTLTVSS
VL: SIVMTQTPKFLLVSAGDRVIITCKASQSVSNTVAWYQQKPGQSPKLLIYYASNRYTGVPDRFTGSGYGTDFTFTISTVQAEDLAVYFCQQDYRSPFTFGSGTQLEMK
B11: MTK-11 (antibody, human IgG1, V domains shown)
VH: QVQLKQSGPGLVQPSQSLSITCTVSGFSLTDYGVHWVRQSPGKGLEWLGVIWSSGTTDYNEAFISRLSISKDNSKSHVFFKMNSLQAIDTAIYYCARKGHDPYAMDYWGQGTSVTVSS
VL: QIVLTQSPAIMSASLGERVTMTCTASSSISSSYFHWYQQKPGSSPKLWIYSTSNLPSGVPARFSGSGSGTSYSLTISSMEAEDAATYYCHQYYRSPLTFGAGTKLELK

The target of the first assay is T1, Recombinant human MerTK human Fc …. Nature of the assay: competition ELISA, His-Gas6 on captured MerTK-Fc. Here is the method:
Rabbit anti-human IgG polyclonal antibody (Jackson ImmunoResearch, Cat #309-005-008) was captured to a high-protein binding plate at 2 μg/ml 4° C. overnight. After washing with 0.05% Tween20 in PBS three times, 5% BSA in PBS was added for 1 hour. Recombinant human MerTK human Fc Chimera protein (R&D systems, Cat #391-MR-100) was added at 2 μg/ml for 1 hour and the plates were then washed. Anti-MerTK antibodies were titrated to final concentration range of between 66.6 nM to 4 pM and then 40 μl of serially diluted antibody and 40 μl of His tag-conjugated recombinant Gas6 protein (R&D systems, Cat #885-GSB-050) at 3 μg/ml or His tag-conjugated recombinant ProS protein (R&D systems, Cat #9489-PS-100) at 20 μg/ml. After a further incubation for 1 hour, plates were washed and incubated for 1 hour with HRP-conjugated anti-6×His tag antibody (Abcam, Cat #ab1187). Plates were then washed and an HRP substrate (TMB) was used to develop the plates. After sufficient color change was observed, the reaction was stopped by adding 50 μl 2N H₂SO₄ and the OD was measured using a spectrophotometer (BioTek).
From these experiments, IC50 values [nM] were determined using OD450 values obtained from the dose-response curves analyzed with Prism software. Table 14 and Table 15 show IC50 values determined for anti-MerTK antibody blocking of Gas6 ligand binding and ProS ligand binding to MerTK. […] Dashes indicate lack of significant blocking; “n.a.” indicates data not available.
On the technique in general: ELISA stands for enzyme-linked immunosorbent assay.
The term IC50 denotes the point on the concentration scale where inhibition reaches its midpoint. Consider B1, for which the IC50 is 0.31 nM.

For the molecule B2, the IC50 turned out to be 0.29 nM.

B3: the IC50 stood at 1.26 nM.

Take B4: the IC50 stood at 1.42 nM.

Turning to B5, the IC50 is 2.93 nM.

In a further assay the target is T2, human MerTK endogenously expressed on …. Nature of the assay: cell-based or functional assay.
Turning to B6, the “Gas6-mediated pAKT activity, average IC50, human M2c macrophages” value (shortened to “Gas6-mediated pAKT activity”) came out at 1.28 nM.

Regarding B7, the “Gas6-mediated pAKT activity” value was 5.37 nM.

On to B8, for which the “Gas6-mediated pAKT activity” value stood at 0.246 nM.

As to B9, the “Gas6-mediated pAKT activity” value came to 0.902 nM.

Turning to B10, the “Gas6-mediated pAKT activity” value amounted to 4.28 nM.

Consider B11, for which the “Gas6-mediated pAKT activity” value is 2.63 nM.

For another assay the target is unchanged. Nature of the assay: flow cytometry on SK-MEL-5 cells, Prism fit. Here is the method: To determine whether recombinant anti-human MerTK antibodies of the present disclosure bind to human MerTK endogenously expressed on SK-MEL-5 cells and to CHO cells overexpressing mouse MerTK (CHO-muMerTK OE cells), the following experiments were performed. SK-MEL-5 cells and CHO-muMerTK OE cells were plated at 40,000 cells/well. Anti-MerTK antibodies were titrated to a final concentration range of between 66.6 nM to 4 pM and then added to the cells. After 30 min on ice, cells were washed and then stained with APC-conjugated mouse anti-human Kappa antibody (Southern Biotech Cat #9230-11, Birmingham, Ala.) and a viability die (Life Technologies) in the presence of Fc block solution on ice for 30 minutes, and then washed twice with cold FACS buffer (2% FBS in PBS). Cells were fixed with 4% paraformaldehyde in PBS. Stained cells were acquired on a BD FACS Canto II cytometer and the mean fluorescence intensity (MFI) was calculated with FlowJo software and K value was calculated with Prism software. […] A lower Kd value reflects higher binding of antibody to cells.
One may read the Kd as the equilibrium constant for the complex coming apart. Read a low Kd as higher affinity. With B1, the affinity, expressed as Kd, was 1.29 nM.

Take B6: the Kd is 0.049 nM.

Molecule B7 came in with a Kd of 0.14 nM.

Take B2: the equilibrium dissociation constant (Kd) was 1.42 nM.

Molecule B3 had a Kd of 0.47 nM.

B4 yielded a Kd of 2.55 nM.

The molecule B5 gave a Kd of 1.38 nM.

Take B9: binding was characterised by a dissociation constant (Kd) of 3.07 nM.

As to B10, the Kd worked out at 0.93 nM.

With B11, the affinity, expressed as Kd, was 3.54 nM.
